Measurements from article PMC5342261, “Boosting of HIV envelope CD4 binding site antibodies with long variable heavy third complementarity determining region in the randomized double blind RV305 HIV-1 vaccine trial” (PLoS Pathogens, 2017).

B1: DH576 Unmutated Common Ancestor (UCA) (antibody, V domains shown)
VH: QVQLVESGGGVVQPGRSLRLSCAASGFTFSSYGMHWVRQAPGKGLEWVAVISYDGSNKYYADSVKGRFTISRDNSKNTLYLQMNSLRAEDTAVYYCARDRARSSGYFGGIYYYYYGMDVWGQGTTVTVSS
VL: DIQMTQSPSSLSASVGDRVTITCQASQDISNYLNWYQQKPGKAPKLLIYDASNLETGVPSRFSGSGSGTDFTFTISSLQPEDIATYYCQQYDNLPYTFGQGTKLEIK
notes: also called DH576 UCA; UCA of DH576; source: recombinantly expressed
B2: VRC01 (antibody, V domains shown)
VH: QVQLVQSGGQMKKPGESMRISCRASGYEFIDCTLNWIRLAPGKRPEWMGWLKPRGGAVNYARPLQGRVTMTRDVYSDTAFLELRSLTVDDTAVYFCTRGKNCDYNWDFEHWGRGTPVIVSS
VL: EIVLTQSPGTLSLSPGETAIISCRTSQYGSLAWYQQRPGQAPRLVIYSGSTRAAGIPDRFSGSRWGPDYNLTISNLESGDFGVYYCQQYEFFGQGTKVQVD
notes: also called CD4 bs bnAb VRC01

Columns and labels:
[1] = biological target: AE.A244gp120 (HIV-1); experiment: SPR; conditions: both partners purified
[2] = biological target: AE.A244gp120 (HIV-1); experiment: ELISA; blocking ELISA; AE.A244gp120 on the plate; mAbs diluted 3-fold from 100 ug/mL added for 1 h, wash, biotinylated VRC01 or CH31 for 1 h, streptavidin-HRP; conditions: both partners purified

Binder | binding result [1] | binding result [2]
B1 | binds | –
B2 | – | binds
